Experimental data as given in US5559213A, “Polyethylene-protein conjugates” (Hoffmann-La Roche Inc., priority 1995, dated 1996).

Key:
[1] = target: T1, IL-1 receptor on EL-4 membranes (Mus musculus, UniProt P13504); assay: IL-1 radioreceptor competition binding assay
T1 construct: incubated at varying concentrations with EL-4 membranes; endogenous in cells; host or cells: EL-4 cell membranes
T1 sequence (P13504 20-576): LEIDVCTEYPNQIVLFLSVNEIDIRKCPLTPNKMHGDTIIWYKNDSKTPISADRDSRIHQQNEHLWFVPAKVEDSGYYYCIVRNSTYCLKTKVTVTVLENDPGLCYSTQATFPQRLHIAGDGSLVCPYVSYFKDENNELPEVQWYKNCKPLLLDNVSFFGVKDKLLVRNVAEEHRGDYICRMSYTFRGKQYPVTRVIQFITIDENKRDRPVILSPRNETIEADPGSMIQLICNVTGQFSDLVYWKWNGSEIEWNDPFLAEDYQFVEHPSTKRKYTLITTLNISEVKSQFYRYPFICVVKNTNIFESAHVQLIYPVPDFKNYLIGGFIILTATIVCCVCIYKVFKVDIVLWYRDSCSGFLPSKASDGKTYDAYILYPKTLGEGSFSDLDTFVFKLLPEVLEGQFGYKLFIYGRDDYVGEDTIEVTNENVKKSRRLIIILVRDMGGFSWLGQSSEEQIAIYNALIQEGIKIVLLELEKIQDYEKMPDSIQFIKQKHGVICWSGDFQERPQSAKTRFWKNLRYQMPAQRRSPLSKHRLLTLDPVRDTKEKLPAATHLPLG
Method: Pegylated IL-1ra was purified from the reaction mixture using hydrophobic exchange chromatography (Bio-Rad; HRLC MP7 HlC). A linear gradient with decreasing salt concentrations from 0.43 to 0.0M (NH4)2 SO4 in 50 mM sodium phosphate pH 7.0 in 20 minutes was used to separate pegylated IL-1ra and unmodified IL-1ra. Aliquots of fractions were evaluated by SDS-PAGE and pooled fractions were assayed in an IL-1 radioreceptor competition binding assay. [Kilian et al. J. Immunol., 136, 4509, (1986)]. Briefly, IL-1ra and PEG-IL-1ra were incubated at varying concentrations with EL-4 membranes for 30 min at 37° C. The [^125 I]IL-1 alpha was then added and the incubation continued for 30 min. The assay was terminated by vacuum filtration and the collection of cell bound [^125 I]IL-1 on filter plates. The concentration of IL-1ra or PEG-IL-1ra that inhibits binding of [^125l]IL- 1 by 50% (IC50) was determined graphically. […] The pegylated IL-1ra mixture retained its ability-to bind to the IL-1 receptor on EL-4 membranes within a factor 2 to 3 fold relative to the unmodified II1-1ra.

[2] = tested on: rIL-1alpha induction of interleukin-6; assay: Inhibition of rIL-1alpha induction of interleukin-6 in mice (pharmacodynamics); type: in vivo
Method: The pharmacodynamics of IL-1ra protein was evaluated in vivo by the ability of the IL-1ra to inhibit rIL-1alpha induction of interleukin-6. Serum from mice treated with rIL-1alpha contain high levels of IL-6, [McIntosh et al., Immunol. 143: 162, (1989)]. The administration of unmodified IL-1ra together with IL-1alpha (0 hr time point) inhibits the induction of IL-6. This test system was used to compare the pharmacodynamic properties of unmodified and PEG IL-1ra. […] Three hours later, serum samples were collected. IL-6 levels (units) were determined using a modification of an IL-6 assay that has been previously described [Van Snick et al., Proc. Natl. Acad. Sci. USA 83:9679, (1986)]. In the IL.-6 assay, B9 hybridoma cells were treated with two fold serial dilutions of the test sera in 96-well microtiter plates. Following a 3 day incubation at 37° C. in a humidified atmosphere comprised of 5% CO2 and 95% air, the wells were pulsed with 0.5 uCi of tritiated thymidine and incubated for an additional 18 hr. The cells were then harvested onto glass fiber filters and the level of tritiated thymidine incorporation was determined by scintillation counting. IL-6 activity is expressed as U/ml. IL-6 units are defined as the inverse of the serum dilution which produces half-maximal tritiated thymidine incorporation compared to a reference standard.

[3] = Pharmacokinetic profile: serum IL-1ra levels in mice after subcutaneous administration; type: in vivo; settings: for Serum Concentration of IL-1ra: Table D2 (pegylated as in Example 6a), 100 ug s.c.; for Serum Level of IL-1ra: Table D4 (reagent of Example 11a); for Serum IL-1ra: Table D5 (reagent of Example 18a)
Method: To determine the pharmacokinetic profile of PEG-IL-1ra species, C57BF/6 mice were administered 100 ug of […] or pegylated IL-1ra species subcutaneously. Serum samples were collected after 1, 2, 3, 4 and 6 hours from mice that received unmodified IL-1ra and after 2, 4, 8, 10, and 24 hours from mice that received PEG-IL-1ra. The serum levels were determined in the EL4 membrane binding assay described in Example 6.

Substance: IL-1ra: Interleukin-1 receptor antagonist, unmodified; apparent molecular weight 19 kD by SDS-PAGE
- IC50 ([1]; Example 6, Table VI: IL-1ra conjugated with reagent of Example 5, label = apparent molecular weight): 2.0 ng/mL
- IC50 ([1]; Example 6A, Table VII: IL-1ra conjugated with reagent of Example 5a, label = apparent molecular weight (kD)): 1.6 ng/mL
- IC50 ([1]; Example 12, Table XII: IL-1ra pegylated with reagent of Example 11, label = apparent molecular weight (kD)): 2.0 ng/mL
- IC50 ([1]; Example 12A, Table XIII: IL-1ra pegylated with reagent of Example 11a, label = apparent molecular weight (kD)): 0.8 ng/mL
- IC50 ([1]; Example 19, Table XIV: IL-1ra pegylated with reagent of Example 18, label = apparent molecular weight (kD)): 2.0 ng/mL
- IC50 ([1]; Example 19A, Table XV: IL-1ra pegylated with reagent of Example 18a, label = apparent molecular weight (kD)): 1.5 ng/mL
- IC50 ([1]; Example 26, Table XVIII: IL-1ra pegylated with reagent of Example 23, label = apparent molecular weight (kD)): 2.0 ng/mL
- IC50 ([1]; Example 29, Table XX: IL-1ra pegylated with reagent of Example 28, label = molecular weight (kD)): 1.4 ng/mL
- IC50 ([1]; Example 32, Table XXII: rIL-1ra conjugated with reagent of Example 31, label = apparent molecular weight (kD)): 1.5 ng/mL
- IC50 ([1]; Example 38, Table XXV: rIL-1ra conjugated with the reagent described in Example 35 (so in the source), label = apparent molecular weight (kD)): 1.0 ng/mL
- IC50 ([1]; IC50 of IL-1ra in this assay (general statement)): 1 to 2.0 ng/mL
- inhibition of the IL-1 response ([2]; Example 12, within 6 hours of administration): less than 50%
- IL-6 ([2]; Table D1 (reagent of Example 5), 200 ug s.c. 0 hr prior to 0.2 ug rIL-1 alpha, IL-1 alone 28852 U/ml): 772 Units/ml
- IL-6 ([2]; Table D1 (reagent of Example 5), 200 ug s.c. 6 hr prior to 0.2 ug rIL-1 alpha, IL-1 alone 28852 U/ml): 8361 Units/ml
- IL-6 ([2]; Table D1 (reagent of Example 5), 200 ug s.c. 24 hr prior to 0.2 ug rIL-1 alpha, IL-1 alone 28852 U/ml): 22525 Units/ml
- IL-6 ([2]; Table D1 (reagent of Example 5), 200 ug s.c. 48 hr prior to 0.2 ug rIL-1 alpha, IL-1 alone 28852 U/ml): 18485 Units/ml
- IL-6 ([2]; Table D1 (reagent of Example 5), 200 ug s.c. 72 hr prior to 0.2 ug rIL-1 alpha, IL-1 alone 28852 U/ml): 13220 Units/ml
- IL-6 ([2]; Table D3 (reagent of Example 11), 0 hr prior to IL-1 administration, IL-1 alone 27283 u/ml): 4789 Units/ml
- IL-6 ([2]; Table D3 (reagent of Example 11), 6 hr prior to IL-1 administration, IL-1 alone 27283 u/ml): 15324 Units/ml
- IL-6 ([2]; Table D3 (reagent of Example 11), 24 hr prior to IL-1 administration, IL-1 alone 27283 u/ml): 24841 Units/ml
- IL-6 ([2]; Table D3 (reagent of Example 11), 48 hr prior to IL-1 administration, IL-1 alone 27283 u/ml): 16348 Units/ml
- IL-6 ([2]; Table D3 (reagent of Example 11), 72 hr prior to IL-1 administration, IL-1 alone 27283 u/ml): 12067 Units/ml
- IL-6 ([2]; Table D6 (reagent of Example 18), 0 hr prior to 0.05 ug rIL-1 alpha, IL-1 alone 9203 units/ml): 521 Units/ml
- IL-6 ([2]; Table D6 (reagent of Example 18), 6 hr prior to 0.05 ug rIL-1 alpha, IL-1 alone 9203 units/ml): 2334 Units/ml
- IL-6 ([2]; Table D6 (reagent of Example 18), 24 hr prior to 0.05 ug rIL-1 alpha, IL-1 alone 9203 units/ml): 13486 Units/ml
- IL-6 ([2]; Table D6 (reagent of Example 18), 48 hr prior to 0.05 ug rIL-1 alpha, IL-1 alone 9203 units/ml): 16577 Units/ml
- IL-6 ([2]; Table D6 (reagent of Example 18), 72 hr prior to 0.05 ug rIL-1 alpha, IL-1 alone 9203 units/ml): 12800 Units/ml
- Serum Concentration of IL-1ra ([3]; 1 hr after administration): 400
- Serum Concentration of IL-1ra ([3]; 2 hr after administration): 130
- Serum Concentration of IL-1ra ([3]; 4 hr after administration): 15
- Serum Concentration of IL-1ra ([3]; 6 hr after administration): 16
- Serum Concentration of IL-1ra ([3]; time not given, line between 2 and 4 hr): 40
- Serum Level of IL-1ra ([3]; 1 hr after administration): 220 ng/mL
- Serum Level of IL-1ra ([3]; 2 hr after administration): 33 ng/mL
- Serum Level of IL-1ra ([3]; 3 hr after administration): 13 ng/mL
- Serum Level of IL-1ra ([3]; 4 hr after administration): 5.3 ng/mL
- Serum Level of IL-1ra ([3]; 6 hr after administration): 1.5 ng/mL
- Serum IL-1ra ([3]; 1 hr after administration): 580 ng/mL
- Serum IL-1ra ([3]; 2 hr after administration): 75 ng/mL
- Serum IL-1ra ([3]; 3 hr after administration): 30 ng/mL
- Serum IL-1ra ([3]; 4 hr after administration): 30 ng/mL
- Serum IL-1ra ([3]; 6 hr after administration): 8 ng/mL
